# Experimental data as given in the supplement of paper PMC12667976.
# ± gives the standard error.
# B1: library; numbered along this chain (parent)
# chain: MATDAALRRLLRLHRTEIAVAVDSAFPLLHALADHDVVPEDKFQETLHLKEKEGCPQAFHALLSWLLTQDSTAILDFWRVLFKDYNLERYGRLQPILDSFPKDVDLSQPRKGRKPPAVPKALVPPPRLPTKRKASEEARAAAPAALTPRGTASPGSQLKAKPPKKPESSAEQQRLPLGNGIQTMSASVQRAVAMSSGDVPGARGAVEGILIQQVFESGGSKKCIQVGGEFYTPSKFEDSGSGKNKARSSSGPKPLVRAKGAQGAAPGGGEARLGQQGSVPAPLALPSDPQLHQKNEDECAVCRDGGELICCDGCPRAFHLACLSPPLREIPSGTWRCSSCLQATVQEVQPRAEEPRPQEPPVETPLPPGLRSAGEEVRGPPGEPLAGMDTTLVYKHLPAPPSAAPLPGLDSSALHPLLCVGPEGQQNLAPGARCGVCGDGTDVLRCTHCAAAFHWRCHFPAGTSRPGTGLRCRSCSGDVTPAPVEGVLAPSPARLAPGPAKDDTASHEPALHRDDLESLLSEHTFDGILQWAIQSMARPAAPFPS
# Variants of: B1
# Assay: AIRE transcriptional activation functional score (insulin promoter-GFP; nonsense median 0, synonymous median 1) (normalised score); higher = higher AIRE activity (more reporter activation)
# Conditions: with insulin promoter-GFP reporter in HEK293
# Outline: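 Flp-In T-REx HEK293 landing-pad cells carrying an insulin core promoter-GFP reporter received codon-optimized AIRE NNN-codon libraries (three regions) through Bxb1 recombinase. Sorting of mCherry+, BFP− integrants took place at day 7, followed by 7 days of expansion and tile-sequencing of top 10% GFP and unselected integrant populations. A functional score was derived from select versus non-select variant enrichment with wild type subtracted. Values from variants reaching 10 counts per million in non-select were set to nonsense median 0 and synonymous median 1 and averaged over biological replicates.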
row,Variant,AIRE transcriptional activation functional score
1,G467T,0.0754 ± 0.27
2,G467A,0.947 ± 0.23
3,G467N,0.68 ± 0.09
4,G467V,1.06 ± 0.32
5,G467K,0.889 ± 0.075
6,G467C,0.822 ± 0.074
7,G467S,1.06 ± 0.13
8,G467W,1.12 ± 0.12
9,G467H,1.42 ± 0.22
10,G467Y,0.488 ± 0.17
11,G467P,1.04 ± 0.11
12,G467D,0.675 ± 0.16
13,G467M,0.866 ± 0.058
14,G467E,1.16 ± 0.064
15,G467L,1.46 ± 0.33
16,G467F,1.29 ± 0.12
17,G467I,0.79 ± 0.5
18,G467R,1.01 ± 0.36
19,P466V,1.06 ± 0.25
20,P466F,0.774 ± 0.31
21,P466M,0.678 ± 0.14
22,P466A,0.83 ± 0.3
23,P466C,1.89 ± 0.097
24,P466I,1.21 ± 0.15

row,Variant,AIRE transcriptional activation functional score
1,P466T,1.12 ± 0.2
2,P466D,0.553 ± 0.043
3,P466E,0.232 ± 0.26
4,P466L,1.1 ± 0.16
5,P466H,1.46 ± 0.26
6,P466K,0.864 ± 0.1
7,P466Y,1.21 ± 0.21
8,P466R,0.843 ± 0.16
9,P466N,0.444 ± 0.26
10,P466W,1.42 ± 0.038
11,P466S,1.08 ± 0.45
12,P466Q,1.02 ± 0.13
13,P466G,1.23 ± 0.09
14,L470W,1.38 ± 0.048
15,L470D,0.572 ± 0.11
16,L470E,0.628 ± 0.14
17,L470S,0.622 ± 0.39
18,L470P,0.863 ± 0.21
19,L470K,0.988 ± 0.22
20,L470A,1.02 ± 0.089
21,L470M,0.671 ± 0.069
22,L470G,0.741 ± 0.084
23,L470H,0.541 ± 0.12
24,L470I,0.814 ± 0.23

row,Variant,AIRE transcriptional activation functional score
1,L470N,1.06 ± 0.046
2,L470Q,1.11 ± 0.13
3,L470F,0.971 ± 0.13
4,L470R,0.997 ± 0.19
5,L470C,0.85 ± 0.11
6,L470T,0.558 ± 0.33
7,L470Y,0.549 ± 0.28
8,L470V,0.842 ± 0.23
9,T468A,1.03 ± 0.21
10,T468M,1.12 ± 0.053
11,T468V,0.997 ± 0.24
12,T468K,0.654 ± 0.15
13,T468I,1.16 ± 0.17
14,T468S,0.945 ± 0.19
15,T468Q,1.22 ± 0.19
16,T468G,1.08 ± 0.33
17,T468L,1.18 ± 0.18
18,T468P,0.984 ± 0.27
19,T468Y,1.25 ± 0.2
20,T468F,1.02 ± 0.15
21,T468C,1.14 ± 0.24
22,T468R,0.696 ± 0.3
23,T468E,0.46 ± 0.12
24,T468N,1.08 ± 0.15

row,Variant,AIRE transcriptional activation functional score
1,T468D,1.18 ± 0.066
2,T468H,0.996 ± 0.11
3,T468W,1.29 ± 0.042
4,S464P,1.21 ± 0.22
5,S464T,0.783 ± 0.11
6,S464D,0.7 ± 0.34
7,S464K,1.18 ± 0.19
8,S464E,1.32 ± 0.084
9,S464C,1.18 ± 0.15
10,S464M,-0.078 ± 0.07
11,S464I,1.17 ± 0.076
12,S464G,1.27 ± 0.2
13,S464W,-0.451 ± 0.18
14,S464V,0.722 ± 0.23
15,S464F,0.807 ± 0.17
16,S464H,1.17 ± 0.17
17,S464Y,1.23 ± 0.052
18,S464A,0.955 ± 0.39
19,S464N,0.563 ± 0.36
20,S464L,1.06 ± 0.28
21,S464R,0.955 ± 0.15
22,T463V,1.49 ± 0.074
23,T463C,1.42 ± 0.16
24,T463P,1.14 ± 0.17

row,Variant,AIRE transcriptional activation functional score
1,T463R,0.998 ± 0.24
2,T463F,0.0316 ± 0.15
3,T463L,1.06 ± 0.14
4,T463Q,0.155 ± 0.73
5,T463I,0.876 ± 0.1
6,T463M,1.51 ± 0.09
7,T463W,1.05 ± 0.021
8,T463N,0.736 ± 0.57
9,T463G,1.01 ± 0.066
10,T463H,0.813 ± 0.078
11,T463D,1.54 ± 0.082
12,T463K,0.983 ± 0.24
13,T463S,1.01 ± 0.25
14,T463A,0.614 ± 0.19
15,T463Y,0.384 ± 1
16,R471F,1.09 ± 0.21
17,R471D,0.476 ± 0.075
18,R471G,0.676 ± 0.33
19,R471H,1.03 ± 0.1
20,R471C,0.215 ± 0.1
21,R471A,0.351 ± 0.28
22,R471E,0.786 ± 0.84
23,R465F,1.15 ± 0.032
24,R465T,-0.654 ± 0.16

row,Variant,AIRE transcriptional activation functional score
1,R465S,1.04 ± 0.19
2,R465H,0.546 ± 0.17
3,R465I,0.773 ± 0.47
4,R465D,0.53 ± 0.072
5,R465L,1.01 ± 0.4
6,R465N,-1.1 ± 0.54
7,R465V,0.453 ± 0.28
8,R465C,0.66 ± 0.18
9,R465W,1.18 ± 0.033
10,R465Y,1.39 ± 0.062
11,R465P,0.829 ± 0.13
12,R465G,0.791 ± 0.25
13,R465M,0.403 ± 0.26
14,R465Q,0.443 ± 0.2
15,R465A,0.476 ± 0.11
16,G469V,1.14 ± 0.17
17,G469N,1 ± 0.089
18,G469P,0.911 ± 0.2
19,G469W,1.08 ± 0.024
20,G469L,0.726 ± 0.3
21,G469I,0.951 ± 0.33
22,G469R,0.913 ± 0.23
23,G469H,1.19 ± 0.29
24,G469Q,0.807 ± 0.11

row,Variant,AIRE transcriptional activation functional score
1,G469S,1.15 ± 0.27
2,G469C,1.56 ± 0.064
3,G469E,0.672 ± 0.2
4,G469K,0.564 ± 0.23
5,G469T,0.687 ± 0.22
6,G469M,1.18 ± 0.044
7,G469D,0.77 ± 0.46
8,G469F,1.42 ± 0.095
9,G469A,0.409 ± 0.37
10,G462H,0.925 ± 0.089
11,G462Q,1.03 ± 0.042
12,G462N,1.34 ± 0.14
13,G462M,-0.0181 ± 0.26
14,G462Y,1.24 ± 0.089
15,G462W,0.899 ± 0.042
16,G462V,1.03 ± 0.18
17,G462S,0.982 ± 0.23
18,G462I,0.802 ± 0.27
19,G462R,1.01 ± 0.11
20,G462P,0.607 ± 0.22
21,G462T,0.372 ± 0.6
22,G462L,0.83 ± 0.49
23,G462K,-0.837 ± 0.47
